Measurements published in patent US20170232104A1.

How the values were obtained:
[1] = biological target: 28mer peptide of the CXCR5 antigen; assay: antigen ELISA; PBS 155 mM, light stress, 24 h +40C
[2] = biological target: 28mer peptide of the CXCR5 antigen; assay: antigen ELISA; 100 mg/mL formulation, +5C, 1 month
[3] = biological target: 28mer peptide of the CXCR5 antigen; assay: antigen ELISA; 100 mg/mL formulation, +5C, initial
[4] = biological target: 28mer peptide of the CXCR5 antigen; assay: antigen ELISA; PBS 155 mM, polypropylene, 24 h +40C
[5] = biological target: 28mer peptide of the CXCR5 antigen; assay: antigen ELISA; 100 mg/mL formulation, -20C, 1 month
[6] = biological target: 28mer peptide of the CXCR5 antigen; assay: antigen ELISA; 100 mg/mL formulation, -20C, initial
[7] = biological target: 28mer peptide of the CXCR5 antigen; assay: antigen ELISA; 100 mg/mL formulation, +5C, 3 months
[8] = biological target: 28mer peptide of the CXCR5 antigen; assay: antigen ELISA; 100 mg/mL formulation, +5C, 6 months
[9] = biological target: 28mer peptide of the CXCR5 antigen; assay: antigen ELISA; 100 mg/mL formulation, +5C, 9 months
[10] = biological target: 28mer peptide of the CXCR5 antigen; assay: antigen ELISA; 100 mg/mL formulation, +25C, 1 month
[11] = biological target: 28mer peptide of the CXCR5 antigen; assay: antigen ELISA; 100 mg/mL formulation, +25C, initial
[12] = biological target: 28mer peptide of the CXCR5 antigen; assay: antigen ELISA; 100 mg/mL formulation, -20C, 3 months
[13] = biological target: 28mer peptide of the CXCR5 antigen; assay: antigen ELISA; 100 mg/mL formulation, -20C, 6 months
[14] = biological target: 28mer peptide of the CXCR5 antigen; assay: antigen ELISA; 100 mg/mL formulation, -20C, 9 months
[15] = biological target: 28mer peptide of the CXCR5 antigen; assay: antigen ELISA; 100 mg/mL formulation, +5C, 12 months
[16] = biological target: 28mer peptide of the CXCR5 antigen; assay: antigen ELISA; 100 mg/mL formulation, +5C, 15 months
[17] = biological target: 28mer peptide of the CXCR5 antigen; assay: antigen ELISA; 100 mg/mL formulation, +5C, 18 months
[18] = biological target: 28mer peptide of the CXCR5 antigen; assay: antigen ELISA; 100 mg/mL formulation, +25C, 3 months
[19] = biological target: 28mer peptide of the CXCR5 antigen; assay: antigen ELISA; 100 mg/mL formulation, +25C, 6 months
[20] = biological target: 28mer peptide of the CXCR5 antigen; assay: antigen ELISA; 100 mg/mL formulation, -20C, 12 months
[21] = biological target: 28mer peptide of the CXCR5 antigen; assay: antigen ELISA; 100 mg/mL formulation, -20C, 18 months
[22] = biological target: 28mer peptide of the CXCR5 antigen; assay: antigen ELISA; citrate pH 6.0 prototype B, 20 mg/mL, T0
[23] = biological target: 28mer peptide of the CXCR5 antigen; assay: antigen ELISA; citrate pH 6.0 prototype C, 20 mg/mL, T0
[24] = biological target: 28mer peptide of the CXCR5 antigen; assay: antigen ELISA; acetate pH 5.5 prototype C, 20 mg/mL, T0
[25] = biological target: 28mer peptide of the CXCR5 antigen; assay: antigen ELISA; acetate pH 5.5 prototype D, 20 mg/mL, T0
[26] = biological target: 28mer peptide of the CXCR5 antigen; assay: antigen ELISA; PBS 155 mM, clear glass type I, 24 h +40C
[27] = biological target: 28mer peptide of the CXCR5 antigen; assay: antigen ELISA; PBS 155 mM, 1 h purged with air, 24 h +40C
[28] = biological target: 28mer peptide of the CXCR5 antigen; assay: antigen ELISA; histidine pH 5.0 prototype A, 20 mg/mL, T0
[29] = biological target: 28mer peptide of the CXCR5 antigen; assay: antigen ELISA; histidine pH 5.0 prototype D, 20 mg/mL, T0
[30] = biological target: 28mer peptide of the CXCR5 antigen; assay: antigen ELISA; PBS 155 mM, clear glass type I as T0, 24 h +40C
[31] = biological target: 28mer peptide of the CXCR5 antigen; assay: antigen ELISA; histidine pH 5.0 prototype B (table title LA_09_029B), 20 mg/mL, T0

EC50% [1]: 72.3%
Potency (Antigen ELISA) EC50 value (in comparison to reference) [2]: 105%
Potency (Antigen ELISA) EC50 value (in comparison to reference) [3]: 75%
EC50% [4]: 107%
Potency (Antigen ELISA) EC50 value (in comparison to reference) [5]: 107%
Potency (Antigen ELISA) EC50 value (in comparison to reference) [6]: 75%
Potency (Antigen ELISA) EC50 value (in comparison to reference) [7]: 95%
Potency (Antigen ELISA) EC50 value (in comparison to reference) [8]: 97%
Potency (Antigen ELISA) EC50 value (in comparison to reference) [9]: 92%
Potency (Antigen ELISA) EC50 value (in comparison to reference) [10]: 121%
Potency (Antigen ELISA) EC50 value (in comparison to reference) [11]: 75%
Potency (Antigen ELISA) EC50 value (in comparison to reference) [12]: 84%
Potency (Antigen ELISA) EC50 value (in comparison to reference) [13]: 96%
Potency (Antigen ELISA) EC50 value (in comparison to reference) [14]: 101%
Potency (Antigen ELISA) EC50 value (in comparison to reference) [15]: 93%
Potency (Antigen ELISA) EC50 value (in comparison to reference) [16]: 114%
Potency (Antigen ELISA) EC50 value (in comparison to reference) [17]: 119%
Potency (Antigen ELISA) EC50 value (in comparison to reference) [18]: 96%
Potency (Antigen ELISA) EC50 value (in comparison to reference) [19]: 104%
Potency (Antigen ELISA) EC50 value (in comparison to reference) [20]: 96%
Potency (Antigen ELISA) EC50 value (in comparison to reference) [21]: 127%
EC50% [22]: 104%
EC50% [23]: 104%
EC50% [24]: 142%
EC50% [25]: 91%
EC50% [26]: 131%
EC50% [27]: 84.3%
EC50% [28]: 174%
EC50% [29]: 169%
EC50% [30]: 62.3%
EC50% [31]: 118%
B1: Lead CXCR5 Antibody (humanized IgG4 anti-CXCR5 antibody) (antibody, V domains shown)
VH: QVQLKESGPGLVAPSESLSITCTVSGFSLIDYGVNWIRQPPGKGLEWLGVIWGDGTTYYNPSLKSRLSISKDNSKSQVFLKVTSLTTDDTAMYYCARIVYWGQGTLVTVSA
VL: DIVMTQAAPSVAVTPGASVSISCRSSKSLLHSSGKTYLYWFLQRPGQSPQLLIYRLSSLASGVPDRFSGSGSGTAFTLRISRVEAEDVGVYYCMQHLEYPYTFGGGTKLEIKR
